Earlier results as cited in US10105305B2, “Compositions and methods for promoting skin regeneration and hair growth” (THE JOHNS HOPKINS UNIVERSITY, priority 2014, dated 2018).

Settings: in solution; cited from earlier work

With “LL-37: 37 amino acid cathelicidin peptide, SEQ ID NO:1, residues 134-170 of hCAP18” as the substance, how does the “resistance to proteolytic degradation” value read?
Its value is “significantly resistant to proteolytic degradation in solution”.
